Legend:
human PD-1-His (human) [1] = target: human PD-1-His (human) (UniProt Q15116); assay: Octet tandem epitope binning: PD-1-His on HIS1K biosensor, first dip chmAb A (row), second dip 1C11-based mAb; normalized to HBS-EP first dip
human PD-1-His (human) [2] = target: human PD-1-His (human) (UniProt Q15116); assay: Octet tandem epitope binning: PD-1-His on HIS1K biosensor, first dip chmAb B (row), second dip 1C11-based mAb; normalized to HBS-EP first dip
human PD-1-His (human) [3] = target: human PD-1-His (human) (UniProt Q15116); assay: Octet tandem epitope binning: PD-1-His on HIS1K biosensor, first dip XENP21461 (row), second dip 1C11-based mAb; normalized to HBS-EP first dip
human PD-1-His (human) [4] = target: human PD-1-His (human) (UniProt Q15116); assay: Octet tandem epitope binning: PD-1-His on HIS1K biosensor, first dip XENP16432 (row), second dip 1C11-based mAb; normalized to HBS-EP first dip
human PD-1-His (human) [5] = target: human PD-1-His (human) (UniProt Q15116); assay: Octet tandem epitope binning: PD-1-His on HIS1K biosensor, first dip PDL1-Fc (row), second dip 1C11-based mAb; normalized to HBS-EP first dip
human PD-1-His (human) [6] = target: human PD-1-His (human) (UniProt Q15116); assay: Octet tandem epitope binning: PD-1-His on HIS1K biosensor, first dip HBS-EP buffer (row; the reference of the normalization), second dip 1C11-based mAb
human PD-1-His (human) [7] = target: human PD-1-His (human) (UniProt Q15116); assay: Octet tandem epitope binning: PD-1-His on HIS1K biosensor, first dip 1C11-based mAb (row), second dip 1C11-based mAb; normalized to HBS-EP first dip
human PD-1-His (human) [8] = target: human PD-1-His (human) (UniProt Q15116); assay: Octet
human PD-1-His (human) [9] = target: human PD-1-His (human) (UniProt Q15116); assay: Octet; in the context of PD-1-targeted IL-15/Rα-Fc fusion; reference mAb C H1L1

human PD-1-His (human), sequence (Q15116 25-167 limits assumed): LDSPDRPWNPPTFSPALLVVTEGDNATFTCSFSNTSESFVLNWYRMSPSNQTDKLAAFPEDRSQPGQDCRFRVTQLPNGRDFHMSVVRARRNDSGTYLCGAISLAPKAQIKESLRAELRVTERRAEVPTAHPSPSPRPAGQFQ

Row | normalized BLI-response (human PD-1-His (human) [1]) | normalized BLI-response (human PD-1-His (human) [2]) | normalized BLI-response (human PD-1-His (human) [3]) | normalized BLI-response (human PD-1-His (human) [4]) | normalized BLI-response (human PD-1-His (human) [5]) | normalized BLI-response (human PD-1-His (human) [6]) | normalized BLI-response (human PD-1-His (human) [7]) | Kd (human PD-1-His (human) [8]) [nM] | koff (human PD-1-His (human) [8]) [s⁻¹] | kon (human PD-1-His (human) [8]) [M⁻¹ s⁻¹] | fold improvement in KD over wild-type (human PD-1-His (human) [9]) [fold] | Binder
1 | 0.966 | 0.253 | 0.405 | 0.29 | 0.621 | 1 | 0.0987 | – | – | – | – | 1C11-based mAb (antibody, from another filing, V domains shown) VH: QIQLVQSGPELKKPGETVKISCRASGYTFTHYGMNWVKQAPGKGLKWMGWINTYTGEPTYADDFKGRFAFSLETSASTAYLQINNLKNEDTATYFCARDYYGSSPYWGQGTTLTVSS VL: DVLMTQTPLSLPVSLGDQASISCRSSQSIVHSNGNTYLEWYLQKPGQSPKLLIYKVSNRFSGVPDRFSGSGSGTDFTLKISRVEAEDLGVYYCFQGSHVPNTFGGGTKLEIKR
2 | – | – | – | – | – | – | – | 2.29 | 0.00017 | 74400 | – | mAb C H1.19_L1.1 (in the context of PD-1-targeted IL-15/Rα-Fc fusion) (Fc fusion, part only; not given: IL-15/Rα-Fc chain, constant regions, not shown: another chain or arm of the molecule; a dimerising Fc or GST; small tags and cut ends) VH: EVQLVESGGGLVQPGGSLRLSCAASGFTFSSLGMHWVRQAPGKGLEWVSYISSGSSIIYYADSVKGRFTISRDNAKNSLYLQMNSLRAEDTAVYYCARGGRLVWSPDYWGQGTLVTVSS VL: DIVMTQSPDSLAVSLGERATINCKSSQSLLHSGNQKNYLTWYQQKPGQPPKLLIYWASTRESGVPDRFTGSGSGTDFTLTISSLQAEDVAVYYCQNDYSYPFTFGSGTKLEIK
3 | – | – | – | – | – | – | – | 1.62 | 0.000122 | 74800 | 36 | mAb C H1_L1.140 (in the context of PD-1-targeted IL-15/Rα-Fc fusion) (Fc fusion, part only; not given: IL-15/Rα-Fc chain, constant regions, not shown: another chain or arm of the molecule; a dimerising Fc or GST; small tags and cut ends) VH: EVQLVESGGGLVQPGGSLRLSCAASGFTFSSFGMHWVRQAPGKGLEWVSYISSGSSIIYYADSVKGRFTISRDNAKNSLYLQMNSLRAEDTAVYYCARGGRLVWSPDYWGQGTLVTVSS VL: DIVMTQSPDSLAVSLGERATINCKSSQSLLHSGNQYNYLTWYQQKPGQPPKLLIYWASTRESGVPDRFTGSGSGTDFTLTISSLQAEDVAVYYCQNDYTYPFTFGSGTKLEIK
4 | – | – | – | – | – | – | – | 0.624 | 7.88e-05 | 126000 | 100 | mAb C H1.175_L1.140 (in the context of PD-1-targeted IL-15/Rα-Fc fusion) (Fc fusion, part only; not given: IL-15/Rα-Fc chain, constant regions, not shown: another chain or arm of the molecule; a dimerising Fc or GST) VH: EVQLVESGGGLVQPGGSLRLSCAASGFTFSSLGMHWVRQAPGKGLEWVSYISGGSSIIYYADSVKGRFTISRDNAKNSLYLQMNSLRAEDTAVYYCARGGWLVWSPDYWGQGTLVTVSS VL: DIVMTQSPDSLAVSLGERATINCKSSQSLLHSGNQYNYLTWYQQKPGQPPKLLIYWASTRESGVPDRFTGSGSGTDFTLTISSLQAEDVAVYYCQNDYTYPFTFGSGTKLEIK
5 | – | – | – | – | – | – | – | 0.543 | 7.88e-05 | 145000 | 100 | mAb C H1.132_L1.140 (in the context of PD-1-targeted IL-15/Rα-Fc fusion) (Fc fusion, part only; not given: IL-15/Rα-Fc chain, constant regions, not shown: another chain or arm of the molecule; a dimerising Fc or GST) VH: EVQLVESGGGLVQPGGSLRLSCAASGFTFSSFGMHWVRQAPGKGLEWVSYISSGSSIIYYADSVKGRFTISRDNAKNSLYLQMNSLRAEDTAVYYCARGGWLVWSPDYWGQGTLVTVSS VL: DIVMTQSPDSLAVSLGERATINCKSSQSLLHSGNQYNYLTWYQQKPGQPPKLLIYWASTRESGVPDRFTGSGSGTDFTLTISSLQAEDVAVYYCQNDYTYPFTFGSGTKLEIK

— US20240294593A1
